This is an account of results in publication PMC11168103.

The data set deals with PHOX2B-20A (UniProt Q99453 98-314). In words: NMR.
Sequence of PHOX2B-20A (Q99453 98-314): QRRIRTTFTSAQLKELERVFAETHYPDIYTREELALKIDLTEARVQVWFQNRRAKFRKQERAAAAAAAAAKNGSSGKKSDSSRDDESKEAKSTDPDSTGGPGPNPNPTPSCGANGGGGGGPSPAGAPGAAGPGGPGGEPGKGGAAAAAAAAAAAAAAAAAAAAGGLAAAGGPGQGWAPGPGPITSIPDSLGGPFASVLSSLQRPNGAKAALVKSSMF

B1: ATTA2 (dsDNA)
DNA 1: TAGTGTGATTGAATTAAAGGGCAGG
DNA 2: CCTGCCCTTTAATTCAATCACACTA
As for B1, the binding result is listed as “binds”.
